Experimental findings from the RNAGym collection of RNA variant scans (doi:10.7554/elife.80360) are described below.

Sequences and labels used below:
B1: Hammerhead Ribozyme (parent)
chain: ACCGGAUGUGCUUUCCGGUCUGAUGAGUCCGUGAGGACGAAACAG

The variants in the data set derive from B1. The experiment in a line: self-cleavage, relative activity (ratio to wild type); higher = more cleavage; co-transcriptional.
Take ACCGGAUGAGCUUUCCGGCCUGAUGAGUCCGUGAGGACGAAACAG: the self-cleavage worked out at 0.535.
ACCGGAUGAGCUUUCCGGACUGAUGAGUCCGUGAGGACGAAACAG: the self-cleavage stood at 0.291.
ACCGGAUGAGCUUUCCGGGCUGAUGAGUCCGUGAGGACGAAACAG: the self-cleavage stood at 0.398.
Under ACCGGAUGACCUUUCCGGUCUGAUGAGUCCGUGAGGACGAAACAG stands 1.
Consider ACCGGAUGAUCUUUCCGGUCUGAUGAGUCCGUGAGGACGAAACAG, for which the self-cleavage came to 1.07.
Under ACCGGAUGAACUUUCCGGUCUGAUGAGUCCGUGAGGACGAAACAG stands 1.38.
Take ACCGGAUGAGCUUUCCGGUAUGAUGAGUCCGUGAGGACGAAACAG: the self-cleavage stood at 0.438.
The figure for ACCGGAUGAGCUUUCCGGUGUGAUGAGUCCGUGAGGACGAAACAG is 0.422.
Take ACCGGAUGAGCUUUCCGGUUUGAUGAGUCCGUGAGGACGAAACAG: the self-cleavage worked out at 0.557.
Take ACCGGAUGCGCUUUCCGGUCUGAUGUGUCCGUGAGGACGAAACAG: the self-cleavage came out at 0.671.
On to ACCGGAUGCGCUUUCCGGUCUGAUGGGUCCGUGAGGACGAAACAG, for which the self-cleavage amounted to 0.379.
The figure for ACCGGAUGCGCUUUCCGGUCUGAUGCGUCCGUGAGGACGAAACAG is 0.554; for ACCGGAUGAGCUUUCCGGUCUGAUGAGUACGUGAGGACGAAACAG it is 0.49.
The figure for ACCGGAUGAGCUUUCCGGUCUGAUGAGUUCGUGAGGACGAAACAG is 0.829; for ACCGGAUGAGCUUUCCGGUCUGAUGAGUGCGUGAGGACGAAACAG it is 0.602; for ACCGGAUGAGCUUUCCGGUCUGAUGAGUCCGUGAGGACGAAACAU it is 0.638.
With ACCGGAUGAGCUUUCCGGUCUGAUGAGUCCGUGAGGACGAAACAA, the self-cleavage was 0.707.
Under ACCGGAUGAGCUUUCCGGUCUGAUGAGUCCGUGAGGACGAAACAC stands 0.609; under ACCGGAUGAGCUUUCCCGUCUGAUGAGUCCGUGAGGACGAAACAG, 0.449.
Take ACCGGAUGAGCUUUCCAGUCUGAUGAGUCCGUGAGGACGAAACAG: the self-cleavage was found to be 0.539.
Under ACCGGAUGAGCUUUCCUGUCUGAUGAGUCCGUGAGGACGAAACAG stands 0.565; under ACCGGAUGAGCUUUCCGGUCUGAUGAGUCCGUGAGGACGAAAAAG, 0.333.
The figure for ACCGGAUGAGCUUUCCGGUCUGAUGAGUCCGUGAGGACGAAAUAG is 0.337.
Consider ACCGGAUGAGCUUUCCGGUCUGAUGAGUCCGUGAGGACGAAAGAG, for which the self-cleavage came out at 0.458.
On to ACCGGAUGCGCUUUCCGGUCUGAUGAGUCCGUGAGGACGAAACCG, for which the self-cleavage was found to be 0.493.
As for ACCGGAUGCGCUUUCCGGUCUGAUGAGUCCGUGAGGACGAAACUG, the self-cleavage turned out to be 0.661.
The figure for ACCGGAUGCGCUUUCCGGUCUGAUGAGUCCGUGAGGACGAAACGG is 1.32; for ACCGGAUGAGCUUUCCGGUCUGAUAAGUCCGUGAGGACGAAACAG it is 0.345; for ACCGGAUGAGCUUUCCGGUCUGAUCAGUCCGUGAGGACGAAACAG it is 0.311.
For the variant ACCGGAUGAGCUUUCCGGUCUGAUUAGUCCGUGAGGACGAAACAG, the self-cleavage was 0.342.
The figure for ACCGGAUGAGCUUUCCGGUCUGAUGAGUCCGUGAAGACGAAACAG is 0.751.
As to ACCGGAUGAGCUUUCCGGUCUGAUGAGUCCGUGACGACGAAACAG, the self-cleavage turned out to be 1.05.
The figure for ACCGGAUGAGCUUUCCGGUCUGAUGAGUCCGUGAUGACGAAACAG is 0.435; for ACCGGAUGAGCUUUCGGGUCUGAUGAGUCCGUGAGGACGAAACAG it is 0.742.
Take ACCGGAUGAGCUUUCAGGUCUGAUGAGUCCGUGAGGACGAAACAG: the self-cleavage is 1.15.
Under ACCGGAUGAGCUUUCUGGUCUGAUGAGUCCGUGAGGACGAAACAG stands 1.11.
Take ACCGGAUGAGCUUUCCGGUCUGAUGAGUCCGAGAGGACGAAACAG: the self-cleavage amounted to 0.964.
For the variant ACCGGAUGAGCUUUCCGGUCUGAUGAGUCCGCGAGGACGAAACAG, the self-cleavage was 0.953.
Under ACCGGAUGAGCUUUCCGGUCUGAUGAGUCCGGGAGGACGAAACAG stands 0.539.
Under ACCGGAUGAGCUUUACGGUCUGAUGAGUCCGUGAGGACGAAACAG stands 0.699; under ACCGGAUGAGCUUUUCGGUCUGAUGAGUCCGUGAGGACGAAACAG, 0.848; under ACCGGAUGAGCUUUGCGGUCUGAUGAGUCCGUGAGGACGAAACAG, 0.758.
Under ACCGGAUGAGCUUUCCGGUCUGAUGAGUCCGUGAGUACGAAACAG stands 0.505.
Consider ACCGGAUGAGCUUUCCGGUCUGAUGAGUCCGUGAGCACGAAACAG, for which the self-cleavage was found to be 0.573.
Under ACCGGAUGAGCUUUCCGGUCUGAUGAGUCCGUGAGAACGAAACAG stands 0.621; under ACCGGAUGAGCUUUCCGGUCUGAUGACUCCGUGAGGACGAAACAG, 0.609; under ACCGGAUGAGCUUUCCGGUCUGAUGAUUCCGUGAGGACGAAACAG, 0.585.
The figure for ACCGGAUGAGCUUUCCGGUCUGAUGAAUCCGUGAGGACGAAACAG is 0.841; for ACCGGAUGCGCUUUCCGGUCUGAUGAGUCCGUGAGGACGACACAG it is 0.407; for ACCGGAUGCGCUUUCCGGUCUGAUGAGUCCGUGAGGACGAGACAG it is 0.356.
The figure for ACCGGAUGCGCUUUCCGGUCUGAUGAGUCCGUGAGGACGAUACAG is 0.34; for ACCGGAUGAGCUUUCCGGUCUGAUGAGUCCUUGAGGACGAAACAG it is 1.3; for ACCGGAUGAGCUUUCCGGUCUGAUGAGUCCAUGAGGACGAAACAG it is 0.825.
Turning to ACCGGAUGAGCUUUCCGGUCUGAUGAGUCCCUGAGGACGAAACAG, the self-cleavage stood at 1.18.
Consider ACCGGAUGCGCUUUGCGGUCUGAUGAGUCCGUGAGGACGAAACAG, for which the self-cleavage was 0.49.
Take ACCGGAUGCGCUUUACGGUCUGAUGAGUCCGUGAGGACGAAACAG: the self-cleavage came to 0.956.
For ACCGGAUGAGCUUUCCGGUCUGAUGAGUCAGUGAGGACGAAACAG, the self-cleavage turned out to be 1.
